B1: FAM189A2 (parent)
chain: CALNALTTTVCLVAAALRYLQIFA
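Further: lentivirally expressed fusions sorted by FACS into six bins by GFP to DsRed ratio, PSI derived from sequencing read proportions per bin multiplied by bin number.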

Variants of: B1
Experiment: protein stability index of a GFP-peptide fusion (GPS, HEK-293T) (PSI 1-6); higher = more stable
Conditions: c terminus: a fixed tail appended
Variant CALNALTTTTCLVAAALRYLQIFA [V10T] has a protein stability index of 2.65.
With CALNALTTTKCLVAAALRYLQIFA [V10K] the protein stability index was 2.08.
CALNALTTTSCLVAAALRYLQIFA [V10S] gave a protein stability index of 4.12.
CALNALTTTECLVAAALRYLQIFA [V10E] showed a protein stability index of 3.04.
Work on CALNALTTTGCLVAAALRYLQIFA [V10G] yielded a protein stability index of 4.6.
In the case of CALNALTTTVKLVAAALRYLQIFA [C11K], the protein stability index is reported as 3.55.
Work on CALNALTTTVLLVAAALRYLQIFA [C11L] yielded a protein stability index of 3.18.
Work on CALNALTTTVSLVAAALRYLQIFA [C11S] yielded a protein stability index of 2.18.
In the case of CALNALTTTVPLVAAALRYLQIFA [C11P], the protein stability index is reported as 2.3.
With CALNALTTTVMLVAAALRYLQIFA [C11M] the protein stability index was 2.97.
CALNALTTTVTLVAAALRYLQIFA [C11T] gave a protein stability index of 2.74.
For CALNALTTTVHLVAAALRYLQIFA [C11H], the protein stability index was 1.63.
For CALNALTTLVCLVAAALRYLQIFA [T9L], the protein stability index was 2.69.
CALNALTTCVCLVAAALRYLQIFA [T9C] gave a protein stability index of 2.34.
With CALNALTTSVCLVAAALRYLQIFA [T9S] the protein stability index was 3.11.
In the case of CALNALTTHVCLVAAALRYLQIFA [T9H], the protein stability index is reported as 2.19.
Variant CALNALTTPVCLVAAALRYLQIFA [T9P] has a protein stability index of 3.2.
Variant CALNALTTDVCLVAAALRYLQIFA [T9D] has a protein stability index of 2.65.
Variant CALNALTTVVCLVAAALRYLQIFA [T9V] has a protein stability index of 3.39.
Variant CALNALTTGVCLVAAALRYLQIFA [T9G] has a protein stability index of 4.16.
Work on CALNALTTFVCLVAAALRYLQIFA [T9F] yielded a protein stability index of 2.07.
Work on CALNALTTIVCLVAAALRYLQIFA [T9I] yielded a protein stability index of 2.68.
Work on CALNALTTTVCLVAAALRYKQIFA [L20K] yielded a protein stability index of 3.6.
CALNALTTTVCLVAAALRYFQIFA [L20F] showed a protein stability index of 2.75.
Work on CALNALTTTVCLVAAALRYQQIFA [L20Q] yielded a protein stability index of 3.06.
With CALNALTTTVCLVAAALRYTQIFA [L20T] the protein stability index was 3.88.
With CALNALTTTVCLVAAALRYNQIFA [L20N] the protein stability index was 2.53.
Variant CALNALTTTVCLVAAALRYMQIFA [L20M] has a protein stability index of 3.29.
In the case of CALNALTTTVCLVAAFLRYLQIFA [A16F], the protein stability index is reported as 2.55.
CALNALTTTVCLVAARLRYLQIFA [A16R] gave a protein stability index of 3.06.
In the case of CALNALTTTVCLVAAWLRYLQIFA [A16W], the protein stability index is reported as 1.55.
CALNALTTTVCLVAAKLRYLQIFA [A16K] showed a protein stability index of 4.22.
CALNALTTTVCLVAALLRYLQIFA [A16L] gave a protein stability index of 3.09.
CALNALTTTVCLVAACLRYLQIFA [A16C] gave a protein stability index of 4.04.
CALNALTTTVCLVAAVLRYLQIFA [A16V] gave a protein stability index of 3.33.
Work on CALNALTTTVCLVAAHLRYLQIFA [A16H] yielded a protein stability index of 3.78.
Variant CALNALTTTVCLVAATLRYLQIFA [A16T] has a protein stability index of 1.94.
Work on CALNALTTTVCLVAANLRYLQIFA [A16N] yielded a protein stability index of 2.1.
With CALNAYTTTVCLVAAALRYLQIFA [L6Y] the protein stability index was 3.27.
For CALNAPTTTVCLVAAALRYLQIFA [L6P], the protein stability index was 3.83.
In the case of CALNACTTTVCLVAAALRYLQIFA [L6C], the protein stability index is reported as 2.11.
Variant CALNANTTTVCLVAAALRYLQIFA [L6N] has a protein stability index of 3.48.
In the case of CALNAQTTTVCLVAAALRYLQIFA [L6Q], the protein stability index is reported as 2.83.
CALNADTTTVCLVAAALRYLQIFA [L6D] showed a protein stability index of 3.49.
Variant CALNAGTTTVCLVAAALRYLQIFA [L6G] has a protein stability index of 4.13.
Variant CALNALTTTVCLVASALRYLQIFA [A15S] has a protein stability index of 3.48.
Variant CALNALTTTVCLVALALRYLQIFA [A15L] has a protein stability index of 2.19.
For CALNALTTTVCLVADALRYLQIFA [A15D], the protein stability index was 3.14.
With CALNALTTTVCLVAKALRYLQIFA [A15K] the protein stability index was 2.76.
Work on CALNALTTTVCLVAWALRYLQIFA [A15W] yielded a protein stability index of 2.59.
CALNALTTTVCLVAIALRYLQIFA [A15I] showed a protein stability index of 3.05.
CALNALTTTVCLVAQALRYLQIFA [A15Q] showed a protein stability index of 2.05.
Variant CALNALTTTVCLVAYALRYLQIFA [A15Y] has a protein stability index of 3.03.
Variant CALNALTTTVCLVAVALRYLQIFA [A15V] has a protein stability index of 3.64.
Work on CALNALGTTVCLVAAALRYLQIFA [T7G] yielded a protein stability index of 2.78.
CALNALSTTVCLVAAALRYLQIFA [T7S] gave a protein stability index of 2.85.
With CALNALYTTVCLVAAALRYLQIFA [T7Y] the protein stability index was 3.46.
Variant CALNALRTTVCLVAAALRYLQIFA [T7R] has a protein stability index of 2.34.
Variant CALNALFTTVCLVAAALRYLQIFA [T7F] has a protein stability index of 2.06.
CALNALATTVCLVAAALRYLQIFA [T7A] gave a protein stability index of 3.07.
Variant CALNALPTTVCLVAAALRYLQIFA [T7P] has a protein stability index of 3.27.
CALNALMTTVCLVAAALRYLQIFA [T7M] showed a protein stability index of 4.03.
CALNALTTTVCLVAAALRYLRIFA [Q21R] gave a protein stability index of 1.72.
CALNALTTTVCLVAAALRYLIIFA [Q21I] showed a protein stability index of 2.65.
With CALNALTTTVCLVAAALRYLSIFA [Q21S] the protein stability index was 1.64.
In the case of CALNALTTTVCLVAAALRYLGIFA [Q21G], the protein stability index is reported as 2.9.
CALNALTTTVCLVAAALRYLNIFA [Q21N] showed a protein stability index of 2.02.
CALDALTTTVCLVAAALRYLQIFA [N4D] gave a protein stability index of 2.85.
Work on CALRALTTTVCLVAAALRYLQIFA [N4R] yielded a protein stability index of 3.01.
In the case of CALVALTTTVCLVAAALRYLQIFA [N4V], the protein stability index is reported as 3.46.
Work on CALTALTTTVCLVAAALRYLQIFA [N4T] yielded a protein stability index of 2.17.
With CALEALTTTVCLVAAALRYLQIFA [N4E] the protein stability index was 2.1.
Variant CALFALTTTVCLVAAALRYLQIFA [N4F] has a protein stability index of 2.81.
In the case of CALKALTTTVCLVAAALRYLQIFA [N4K], the protein stability index is reported as 2.35.
Work on CALAALTTTVCLVAAALRYLQIFA [N4A] yielded a protein stability index of 1.84.
Variant CALSALTTTVCLVAAALRYLQIFA [N4S] has a protein stability index of 3.62.
For CALNALTTTVCLVAAALRYLQIPA [F23P], the protein stability index was 3.42.
CALNALTTTVCLVAAALRYLQIVA [F23V] gave a protein stability index of 4.08.
Work on CALNALTTTVCLVAAALRYLQIQA [F23Q] yielded a protein stability index of 4.3.
In the case of CALNALTTTVCLVAAALRYLQIRA [F23R], the protein stability index is reported as 3.81.
CALNALTTTVCLVAAALRYLQINA [F23N] gave a protein stability index of 4.28.
In the case of CALNALTTTVCLVAAALRYLQISA [F23S], the protein stability index is reported as 3.01.
CALNALTTTVCLVAAALRYLQIMA [F23M] showed a protein stability index of 4.05.
CACNALTTTVCLVAAALRYLQIFA [L3C] gave a protein stability index of 4.07.
Variant CAPNALTTTVCLVAAALRYLQIFA [L3P] has a protein stability index of 3.65.
With CADNALTTTVCLVAAALRYLQIFA [L3D] the protein stability index was 3.27.
In the case of CAENALTTTVCLVAAALRYLQIFA [L3E], the protein stability index is reported as 3.25.
CATNALTTTVCLVAAALRYLQIFA [L3T] gave a protein stability index of 2.98.
CAHNALTTTVCLVAAALRYLQIFA [L3H] gave a protein stability index of 2.11.
With CALNALTTTVCLVAAAARYLQIFA [L17A] the protein stability index was 1.47.
With CALNALTTTVCLVAAANRYLQIFA [L17N] the protein stability index was 3.87.
Variant CALNALTTTVCLVAAAGRYLQIFA [L17G] has a protein stability index of 3.97.
CALNALTTTVCLVAAAWRYLQIFA [L17W] showed a protein stability index of 3.15.
Work on CALNALTTTVCLVAAAIRYLQIFA [L17I] yielded a protein stability index of 4.04.

— the supplement of paper PMC10567573
